Results as given in doi:10.1101/2025.07.02.662585 (bioRxiv, 2025).

Biological target: Tor2 (yeast (endogenous in yeast cells), UniProt P32600 1-2474)
Assay: cryo-EM structure

Chain of Tor2 (P32600 whole entry): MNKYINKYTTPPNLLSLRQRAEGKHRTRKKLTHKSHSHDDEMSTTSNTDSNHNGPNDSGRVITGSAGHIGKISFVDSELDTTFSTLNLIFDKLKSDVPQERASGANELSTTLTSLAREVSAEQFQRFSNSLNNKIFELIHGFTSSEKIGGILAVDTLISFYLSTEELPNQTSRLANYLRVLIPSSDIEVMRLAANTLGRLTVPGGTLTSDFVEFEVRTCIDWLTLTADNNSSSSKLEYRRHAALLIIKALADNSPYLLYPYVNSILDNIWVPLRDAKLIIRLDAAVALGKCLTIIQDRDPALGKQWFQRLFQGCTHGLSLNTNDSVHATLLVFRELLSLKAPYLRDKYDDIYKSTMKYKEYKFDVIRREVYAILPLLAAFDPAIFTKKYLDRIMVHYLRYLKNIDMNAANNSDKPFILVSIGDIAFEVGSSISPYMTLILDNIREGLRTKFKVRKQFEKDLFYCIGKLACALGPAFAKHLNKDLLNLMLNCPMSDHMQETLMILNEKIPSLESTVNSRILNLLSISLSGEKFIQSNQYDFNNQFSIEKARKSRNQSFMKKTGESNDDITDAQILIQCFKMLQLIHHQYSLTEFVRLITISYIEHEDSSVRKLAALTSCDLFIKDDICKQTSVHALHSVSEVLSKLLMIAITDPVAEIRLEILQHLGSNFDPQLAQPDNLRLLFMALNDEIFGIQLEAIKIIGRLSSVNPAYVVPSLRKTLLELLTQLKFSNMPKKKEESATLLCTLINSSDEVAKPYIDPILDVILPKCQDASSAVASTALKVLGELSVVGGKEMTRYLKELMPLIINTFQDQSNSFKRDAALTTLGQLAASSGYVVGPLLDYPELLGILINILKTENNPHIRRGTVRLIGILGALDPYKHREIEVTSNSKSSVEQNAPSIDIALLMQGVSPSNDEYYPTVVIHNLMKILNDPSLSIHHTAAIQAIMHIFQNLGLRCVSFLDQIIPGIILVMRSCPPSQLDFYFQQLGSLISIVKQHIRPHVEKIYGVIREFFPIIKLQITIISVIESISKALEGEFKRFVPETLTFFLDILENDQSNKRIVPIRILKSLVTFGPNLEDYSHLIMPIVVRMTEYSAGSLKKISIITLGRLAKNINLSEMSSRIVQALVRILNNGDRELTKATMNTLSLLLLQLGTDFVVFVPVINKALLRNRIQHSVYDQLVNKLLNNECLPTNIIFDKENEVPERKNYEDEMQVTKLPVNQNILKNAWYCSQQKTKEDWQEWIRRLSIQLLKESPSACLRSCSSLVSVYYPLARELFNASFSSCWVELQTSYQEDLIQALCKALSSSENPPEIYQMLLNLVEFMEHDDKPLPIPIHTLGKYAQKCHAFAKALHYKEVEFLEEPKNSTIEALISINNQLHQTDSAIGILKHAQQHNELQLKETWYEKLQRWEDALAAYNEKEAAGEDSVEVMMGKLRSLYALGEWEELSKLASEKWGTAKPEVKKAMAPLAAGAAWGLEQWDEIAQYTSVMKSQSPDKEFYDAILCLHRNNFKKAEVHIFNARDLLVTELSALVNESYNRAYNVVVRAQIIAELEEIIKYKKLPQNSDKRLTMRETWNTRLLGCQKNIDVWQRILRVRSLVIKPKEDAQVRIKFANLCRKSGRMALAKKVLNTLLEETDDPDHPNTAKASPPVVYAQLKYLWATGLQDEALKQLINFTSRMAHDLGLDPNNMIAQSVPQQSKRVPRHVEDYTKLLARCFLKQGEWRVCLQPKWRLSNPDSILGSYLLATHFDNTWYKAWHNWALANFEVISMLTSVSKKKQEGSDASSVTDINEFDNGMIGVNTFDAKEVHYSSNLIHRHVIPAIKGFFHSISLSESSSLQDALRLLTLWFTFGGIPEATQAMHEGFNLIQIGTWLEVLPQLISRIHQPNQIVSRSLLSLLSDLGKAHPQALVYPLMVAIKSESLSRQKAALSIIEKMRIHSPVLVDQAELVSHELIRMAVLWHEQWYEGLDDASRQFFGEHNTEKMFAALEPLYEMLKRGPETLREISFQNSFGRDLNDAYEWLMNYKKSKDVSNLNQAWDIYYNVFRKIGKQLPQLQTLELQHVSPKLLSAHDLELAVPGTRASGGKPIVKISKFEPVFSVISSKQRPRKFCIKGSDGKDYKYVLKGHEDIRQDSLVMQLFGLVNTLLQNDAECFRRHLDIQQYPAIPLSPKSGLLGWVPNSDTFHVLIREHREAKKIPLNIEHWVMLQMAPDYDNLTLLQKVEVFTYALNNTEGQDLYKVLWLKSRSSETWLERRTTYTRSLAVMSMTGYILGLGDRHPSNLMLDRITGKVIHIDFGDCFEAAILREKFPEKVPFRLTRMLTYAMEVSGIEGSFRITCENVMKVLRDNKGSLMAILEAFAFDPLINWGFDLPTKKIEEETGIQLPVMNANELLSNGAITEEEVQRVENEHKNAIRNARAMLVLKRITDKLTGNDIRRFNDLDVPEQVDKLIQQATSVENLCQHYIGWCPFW

Row | Binder | binding result
1 | Avo2 (natural protein) MLKEPSVRLREAIIEGNLLIVKRLLRRNPDLLTNIDSENGWSSLHYASYHGRYLICVYLIQLGHDKHELIKTFKGNTCVHLALMKGHEQTLHLLLQQFPRFINHRGENGRAPIHIACMNDYYQCLSLLIGVGADLWVMDTNGDTPLHVCLEYGSISCMKMLLNEGEVSLDDNVRDKGNWKPIDVAQTFEVGNIYSKVLKEVKKKGPPLGAGKKPSSFRTPILNAKATFEDGPSPVLSMNSPYSLYSNNSPLPVLPRRISTHTTSGNGGNRRSSITNPVFNPRKPTLSTDSFSSSSNSSSRLRVNSINVKTPVGVSPKKELVSESVRHSATPTSPHNNIALINRYLLPNKSNDNVRGDSQTATINDDGGGGNGGDATIGMGLRKDPDDENENKYKIKVNNGEPRRRVSLLNIPISKLRNSNNTRAED | binds
2 | Lst8 (natural protein) MSVILVSAGYDHTIRFWEALTGVCSRTIQHSDSQVNRLEITNDKKLLATAGHQNVRLYDIRTTNPNPVASFEGHRGNVTSVSFQQDNRWMVTSSEDGTIKVWDVRSPSIPRNYKHNAPVNEVVIHPNQGELISCDRDGNIRIWDLGENQCTHQLTPEDDTSLQSLSMASDGSMLAAANTKGNCYVWEMPNHTDASHLKPVTKFRAHSTYITRILLSSDVKHLATCSADHTARVWSIDDDFKLETTLDGHQRWVWDCAFSADSAYLVTASSDHYVRLWDLSTREIVRQYGGHHKGAVCVALNDV | binds
